Each block holds one molecule with its values, some of them ahead of it.
B2: VEGF-R1D2 (Ig domain 2 of human VEGF-R1, residues 129-229, from E. coli) (receptor, UniProt P17948 129-229, looked up)
chain: SDTGRPFVEMYSEIPEIIHMTEGRELVIPCRVTSPNITVTLKKFPLDTLIPDGKRIIWDSRKGFIISNATYKEIGLLTCEATVNGHLYKTNYLTHRQTNTI
notes: range 129-229; Cloned into pQE30; also called Flt-1 domain 2

Key:
[1] = molecular target: VEGF-R1-(hflt1-4)gp130 fusion: chimeric receptor of human VEGF-R1 Ig domains 1 to 4 with the transmembrane and cytoplasmic domains of gp130, on clone 2.1.19.25 cells (human); assay: cell-based or functional assay
[2] = molecular target: VEGF-R1-(hflt1-4)gp130 fusion: chimeric receptor of human VEGF-R1 Ig domains 1 to 4 with the transmembrane and cytoplasmic domains of gp130, on clone 2.1.19.25 cells (human)
[3] = molecular target: VEGF-R1D2 (Ig domain 2 of human VEGF-R1, residues 129-229, from E. coli) (human) (UniProt P17948); assay: SPR (Biacore), VEGF-B immobilised on a CM5 chip, VEGF-R1D2 in solution, Scatchard analysis at steady state
[4] = molecular target: B2; assay: as above
Method: (§1) For initial Biosensor analysis of the binding of the purified and refolded VEGF-B3 isoforms, surface plasmon resonance (Biosensor 2000; Biacore, Sweden) and recombinant VEGF-R1D2 are used. […] The three forms of VEGF-B were immobilized on separate channels of a CM5 sensor chip, while murine LIF was immobilized to a fourth channel to serve as a negative control. Interaction with VEGF-R1D2 was monitored on all channels simultaneously.
(§2) Purified VEGF-R1D2 is diluted to varying concentrations in 0.1% w/v BSA, 20 mM HEPES, 0.15 M NaCl, 0.005% w/v Tween 20, 3.4 mM EDTA, pH 7.4. […] Scatchard analysis is used to determine binding kinetics at steady state equilibrium.

[5] = molecular target: T1, VEGF-B186 (recombinant mature human, N-terminal His6-tagged, refolded homodimer from E. coli) (human, UniProt P49765 22-207, Refolded homodimer; one protomer given.); assay: as above
T1 construct: not shown: N-terminal His6 tag coded by the pET15b vector
T1 sequence: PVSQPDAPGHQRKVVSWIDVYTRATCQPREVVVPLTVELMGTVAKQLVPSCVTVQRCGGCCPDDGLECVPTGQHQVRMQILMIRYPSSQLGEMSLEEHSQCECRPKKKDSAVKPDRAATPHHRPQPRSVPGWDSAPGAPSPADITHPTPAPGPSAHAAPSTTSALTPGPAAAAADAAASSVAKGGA
Method: as §1, §2

Chain of VEGF-R1-(hflt1-4)gp130 fusion: chimeric receptor of human VEGF-R1 Ig domains 1 to 4 with the transmembrane and cytoplasmic domains of gp130, on clone 2.1.19.25 cells (human) (chain, as listed by the source mutant limits assumed, form in doubt): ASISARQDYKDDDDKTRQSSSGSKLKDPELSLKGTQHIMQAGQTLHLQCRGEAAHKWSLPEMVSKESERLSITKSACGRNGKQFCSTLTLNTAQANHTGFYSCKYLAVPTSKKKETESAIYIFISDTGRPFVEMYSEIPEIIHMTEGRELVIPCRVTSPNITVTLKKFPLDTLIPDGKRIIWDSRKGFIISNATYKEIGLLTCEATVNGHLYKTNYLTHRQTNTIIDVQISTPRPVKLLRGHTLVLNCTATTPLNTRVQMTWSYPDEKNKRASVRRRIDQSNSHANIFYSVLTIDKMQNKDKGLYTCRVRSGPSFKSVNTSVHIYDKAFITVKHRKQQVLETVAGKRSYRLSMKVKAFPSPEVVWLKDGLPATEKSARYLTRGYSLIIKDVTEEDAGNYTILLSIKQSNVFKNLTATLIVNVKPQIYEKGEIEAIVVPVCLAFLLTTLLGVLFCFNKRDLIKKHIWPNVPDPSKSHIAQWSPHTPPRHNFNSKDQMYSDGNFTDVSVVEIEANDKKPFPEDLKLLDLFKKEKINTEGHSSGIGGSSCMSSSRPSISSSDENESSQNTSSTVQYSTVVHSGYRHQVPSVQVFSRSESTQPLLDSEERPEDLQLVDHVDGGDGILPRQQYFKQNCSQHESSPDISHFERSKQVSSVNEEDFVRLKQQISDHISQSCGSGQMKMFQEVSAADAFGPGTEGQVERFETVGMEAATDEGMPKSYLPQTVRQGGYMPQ

luciferase, signal to background ratio, clone 2.1.19.25 cells [1]: 2.5 to 3
Molecule: VEGF-A (ligand)

EC50 (read off the curve) (luciferase reporter, clone 2.1.19.25 cells; VEGF-B167 titrated in the presence of the control mAb at 50 µg/ml) [2]: 0.3 µg/mL | ED50, luciferase, 2.1.19.25 cell-based assay [1]: 0.15 to 0.3 µg/mL | Kd [3]: 1.5 nM
Molecule: VEGF-B167 (recombinant, N-terminal His6-tagged, refolded homodimer from E. coli) (from UniProt P49765 22-207) (ligand)

Kd [4]: 0.8 nM
B1: VEGF-B10-108 (truncated mature human VEGF-B, N-terminal His6-tagged, refolded homodimer from E. coli) (ligand, UniProt P49765 31-129, looked up)
chain: HQRKVVSWIDVYTRATCQPREVVVPLTVELMGTVAKQLVPSCVTVQRCGGCCPDDGLECVPTGQHQVRMQILMIRYPSSQLGEMSLEEHSQCECRPKKK
notes: not shown: additional 16 amino acids at the N-terminus which incorporate a His6 tag and a Genenase I cleavage site (pQE30)

Molecule: B2
Kd [5]: 2 nM

Source: patent US20040005671A1 (ZENYTH OPERATIONS, published 2004)
